The results in this text go back to paper PMC10407282, “An efficient selenium transport pathway of selenoprotein P utilizing a high-affinity ApoER2 receptor variant and being independent of selenocysteine lyase” (The Journal of Biological Chemistry, 2023).

In this assay the target is T1, ^75Se-labeled selenoprotein P prepared from HepG2 cells (human (endogenous in HepG2), UniProt P49908 20-381, ^75Se label (cells cultured with ^75Se as selenite); selenocysteine residues).
T1 construct: Selenoprotein P, human, secreted by HepG2 cells that express it endogenously; single band at 69 kDa; also called ^75Se-labeled SeP; ^75Se-labeled human SeP; source: endogenous, HepG2 conditioned medium with ^75Se selenite, partially purified (Ni-NTA agarose, PD-10)
T1 sequence (looked up): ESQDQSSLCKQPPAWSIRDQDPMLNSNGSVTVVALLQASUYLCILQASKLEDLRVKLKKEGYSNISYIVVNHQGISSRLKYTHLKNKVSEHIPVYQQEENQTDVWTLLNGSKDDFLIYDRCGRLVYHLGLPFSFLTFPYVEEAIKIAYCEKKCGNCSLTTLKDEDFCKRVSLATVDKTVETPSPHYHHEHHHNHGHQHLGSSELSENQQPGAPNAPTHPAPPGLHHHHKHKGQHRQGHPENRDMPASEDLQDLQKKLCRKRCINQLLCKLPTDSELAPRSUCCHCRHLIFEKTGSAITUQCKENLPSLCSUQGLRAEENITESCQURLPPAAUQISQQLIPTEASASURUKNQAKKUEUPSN
The assay can be described thus: radioligand binding; Jurkat cells (1.4 x 10^7) with serial dilution of ^75Se-labeled SeP, 1 h at 4 °C, RPMI 1640 with 0.1% BSA, 0.1% NaN3, 50 mM Hepes pH 7.4; nonspecific binding with 500-fold excess of unlabeled SeP; Scatchard analysis, n = 4. The following applies: one partner purified.

B1: Apolipoprotein E receptor 2, 140-kDa variant endogenous on Jurkat cells (JΔ5,18) (receptor)
chain: AADPLLGGQGPAKDCEKDQFQCRNERCIPSVWRCDEDDDCLDHSDEDDCPKKTCADSDFTCDNGHCIHERWKCDGEEECPDGSDESEATCTKQVCPAEKLSCGPTSHKCVPASWRCDGEKDCEGGADEAGCATSLGTCRGDEFQCGDGTCVLAIKHCNQEQDCPDGSDEAGCLQGLNECLHNNGGCSHICTDLKIGFECTCPAGFQLLDQKTCGDIDECKDPDACSQICVNYKGYFKCECYPGYEMDLLTKNCKAAAGKSPSLIFTNRHEVRRIDLVKRNYSRLIPMLKNVVALDVEVATNRIYWCDLSYRKIYSAYMDKASDPKEQEVLIDEQLHSPEGLAVDWVHKHIYWTDSGNKTISVATVDGGRRRTLFSRNLSEPRAIAVDPLRGFMYWSDWGDQAKIEKSGLNGVDRQTLVSDNIEWPNGITLDLLSQRLYWVDSKLHQLSSIDFSGGNRKTLISSTDFLSHPFGIAVFEDKVFWTDLENEAIFSANRLNGLEISILAENLNNPHDIVIFHELKQPRAPDACELSVQPNGGCEYLCLPAPQISSHSPKYTCACPDTMWLGPDMKRCYRAPQSTSTTTLASTMTRTVPATTRAPGTTVHRSTYQNHSTETPSLTAAVPSSVSVPRAPSISPSTLSPATSNHSQHYANEDSKMGSTVTAAVIGIIVPIVVIALLCMSGYLIWRNWKRKNTKSMNFDNPVYRKTTEEEDEDELHIGRTAQIGHVYPARVALSLEDDGLP
modifications: highly glycosylated O-linked sugar domain
In turn, B1 showed a dissociation constant (Kd) of 670 pM.
